# Experimental data published in patent US20110166062A1 (INDIANA UNIVERSITY RESEARCH AND TECHNOLOGY, published 2011).
# Where no end group is shown, it is not given here. [ ]: non-standard residue; d: D form. The star is where a group is joined. C18 fatty acyl = 18 carbon fatty acyl group covalently attached to Lys; PEG 40 kDa = PEG (40 kDa) covalently attached to Cys; Palmitoyl = CCCCCCCCCCCCCCCC(=O)*; Myristoyl = CCCCCCCCCCCCCC(=O)*; Dab = NCC[C@H](N)C(=O)O; Aib = CC(C)(N)C(=O)O
# T1: GIP receptor (UniProt P48546 22-466)
# T1 sequence (looked up): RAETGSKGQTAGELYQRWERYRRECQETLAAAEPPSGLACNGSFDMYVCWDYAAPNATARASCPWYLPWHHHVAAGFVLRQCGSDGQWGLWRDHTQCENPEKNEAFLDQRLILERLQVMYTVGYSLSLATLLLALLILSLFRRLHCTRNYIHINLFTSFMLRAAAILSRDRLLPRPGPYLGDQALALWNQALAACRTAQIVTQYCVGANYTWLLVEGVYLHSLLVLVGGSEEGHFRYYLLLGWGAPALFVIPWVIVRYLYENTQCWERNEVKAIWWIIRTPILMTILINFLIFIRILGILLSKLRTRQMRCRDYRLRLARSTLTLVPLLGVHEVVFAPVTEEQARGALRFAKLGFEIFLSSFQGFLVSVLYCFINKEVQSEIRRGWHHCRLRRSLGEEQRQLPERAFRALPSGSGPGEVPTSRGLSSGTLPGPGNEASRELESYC
# B1: mt-276 (peptide)
# peptide: Y[Aib]QGTFTSDYSIYLD[Dab]QAA[Aib]EFVNWLLAGGPSSGAPPPSC-NH2
# modifications: N-terminus assumed
# SMILES: CC[C@H](C)[C@H](NC(=O)[C@H](CO)NC(=O)[C@H](Cc1ccc(O)cc1)NC(=O)[C@H](CC(=O)O)NC(=O)[C@H](CO)NC(=O)[C@@H](NC(=O)[C@H](Cc1ccccc1)NC(=O)[C@@H](NC(=O)CNC(=O)[C@H](CCC(N)=O)NC(=O)C(C)(C)NC(=O)[C@@H](N)Cc1ccc(O)cc1)[C@@H](C)O)[C@@H](C)O)C(=O)N[C@@H](Cc1ccc(O)cc1)C(=O)N[C@@H](CC(C)C)C(=O)N[C@@H](CC(=O)O)C(=O)N[C@@H](CCN)C(=O)N[C@@H](CCC(N)=O)C(=O)N[C@@H](C)C(=O)N[C@@H](C)C(=O)NC(C)(C)C(=O)N[C@@H](CCC(=O)O)C(=O)N[C@@H](Cc1ccccc1)C(=O)N[C@H](C(=O)N[C@@H](CC(N)=O)C(=O)N[C@@H](Cc1c[nH]c2ccccc12)C(=O)N[C@@H](CC(C)C)C(=O)N[C@@H](CC(C)C)C(=O)N[C@@H](C)C(=O)NCC(=O)NCC(=O)N1CCC[C@H]1C(=O)N[C@@H](CO)C(=O)N[C@@H](CO)C(=O)NCC(=O)N[C@@H](C)C(=O)N1CCC[C@H]1C(=O)N1CCC[C@H]1C(=O)N1CCC[C@H]1C(=O)N[C@@H](CO)C(=O)N[C@@H](CS)C(N)=O)C(C)C
# What was measured:
# Experiment in all cases: cell-based or functional assay
# [1] = target: T1, GIP receptor
# [2] = target: GLP-1 receptor (UniProt P43220 24-463, limits assumed)
# [3] = target: glucagon receptor (UniProt P47871 26-477, limits assumed)
# glucagon receptor, sequence (P47871 26-477 limits assumed): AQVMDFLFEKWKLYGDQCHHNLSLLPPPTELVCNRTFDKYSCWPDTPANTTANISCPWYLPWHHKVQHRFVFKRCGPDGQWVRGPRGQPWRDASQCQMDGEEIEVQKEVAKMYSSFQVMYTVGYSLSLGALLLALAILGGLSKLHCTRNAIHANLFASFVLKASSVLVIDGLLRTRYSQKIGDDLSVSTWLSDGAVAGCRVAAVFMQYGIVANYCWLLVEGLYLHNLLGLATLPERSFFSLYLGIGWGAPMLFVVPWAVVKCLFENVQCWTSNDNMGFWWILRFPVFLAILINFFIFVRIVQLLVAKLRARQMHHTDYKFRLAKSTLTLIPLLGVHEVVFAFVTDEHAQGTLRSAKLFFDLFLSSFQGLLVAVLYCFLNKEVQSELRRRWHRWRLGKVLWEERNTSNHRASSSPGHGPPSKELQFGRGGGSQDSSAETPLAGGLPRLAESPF
Binder,EC50 [1],relative activity [1],EC50 [2],relative activity [2],EC50 [3],relative activity [3]
B1,0.008 nM,174%,0.0066 nM,108%,0.0537 nM,77.7%
Y[Aib]EGTFTSDYSIYLDKQAA[Aib]EFVC(PEG 40 kDa)WLLAGGPSSGAPPPSK(C18 fatty acyl)-NH2 [mt-310],0.0075 nM,275%,0.0062 nM,253%,0.775 nM,8.24%
Y[Aib]EGTFTSDYSIYLDKQAA[Aib]EFVC(PEG 40 kDa)WLLAGGPSSGAPPPSK-NH2 (not fully specified) [mt-311],0.0545 nM,37.8%,0.217 nM,7.22%,197 nM,0.03%
Y[Aib]EGTFTSDYSIYLDKQAA[Aib]EFVC(PEG 40 kDa)WLLAGGPSSGAPPPSK(Palmitoyl)-NH2 [mt-298],0.0051 nM,404%,0.0087 nM,180%,1.76 nM,3.63%
Y[Aib]EGTFTSDYSIYLDKQAA[Aib]EFVC(PEG 40 kDa)WLLAGGPSSGAPPPSK(Myristoyl)-NH2 [mt-309],0.0091 nM,226%,0.0104 nM,151%,3.61 nM,1.77%
